Source: the DeepSol protein solubility set

Test: soluble on expression in E. coli; label from the status in PepcDB or PDB records

**Q.** For “KPNWCPGCGDFSVQAAIQRAAANVGLEPDQLAVISGIGCSGRISGYINAYGFHGVHGRVLPIAQGVKMANRDVTVIASGGDGDGFAIGMGHTVHAIRRNINITYIVMDNQIYGLTKGQTSPRSDVGFKTKSTPSGSVESALNVMEMALTAGATFVAQSFSSDLKELTALIEKGINHNGFSLINVFSPCVTFNKVNTYDWFKENLTKLSDLEGYDPQNRMVAMQTLMEHNGLVTGLIYQNDKQPSYQDLIAGYDEKPLADQDLTIDEGKFKELVGEF”, which “soluble on expression in E. coli” value is on record?
**A.** not soluble

**Q.** For “MITVVIASRLREDRLDYLTAMHASLTRQSVPWEAVIALDGASPDRLPRQLAQDPRVDTLVLPRPVGAACARNLALTQVRTRYVNWADDDDEFTDDAMSVRLETLESTGVGWCAGWSEDQFRDGSTRLWRCPTPPGRHEAGDVWTFWKSPADTIPIGPTTILARTDLVRAAPMGGLVQGEDYCAALGVTALAPGILLPLPVYRYRKWGGQMTAQDGYDQLETAAREHAWAYGRSLRAVLRGGEDLVHVLEHHHHHH”, which “soluble on expression in E. coli” value is on record?
**A.** not soluble

**Q.** With “MIQAAKIKQLKSLDSDLEKAIGRISGGLYIITAQKGEVKGAMLASWVSQASFNPPGFTVAVAKDRAIESLMQVGDRFVLNILEEGNYQILMKHFLKRFPPGADRFAGVKTQTASNGSPILTDALAYLECEVASRMECSDHWIVYSQVTNGRVAKAEGLTAVHHRKVGNYYLEHHHHHH” as the sequence, how does the “soluble on expression in E. coli” value read?
**A.** soluble

**Q.** Which “soluble on expression in E. coli” value does the source give for “MSLNPASMKYEDQEFVIFDVETTGLSSVYDTIIEIGAVKMKNGEVIDRFDKFINPHHPLSETTINLTSITDEMVQAADDEAVVIKQFMDFYGNDPLCGHNVQFDVGFVDAALKRCGYPEISQPVVDTLEVSRLLHPEQSRHTLDSLCRKYNVPLEHHHRANQDAEATGYLMFKLLDAFNDKYQEDDLGKMNDYSNGEGYKRARPTHITVLAQNQKPGLRNLYELVSLAGIKYNFKGLRTPKSELRRLHAGLLYGSACSQGEVFIAMMQKGYEEAKKKAEFYDFLEIQPPSNYSSLIADGLIADEAQLEEILTNIYKLGRELNKPVVATSDAHYIDKHEAIYRDVLLAAQRGNPNRNKQHPDLHFYTTQEMLDEFSFMGEDIAKEVVISNPNKINAMIDEGVQPVQDESFPPKIPHTAERVRKLTYDKAHELYGDPLPDNIQARLDRELDAIIGNGYGVVYLISQMLVAKSVKDGYLVGSRGSVGSSLVATMMGITEINPMPPHYRCPKCKQSEFFENGEYASGFDLPDKKCPDCQVMMVKDGQNIPFETFLGFHGDKVPDIDLNFSGDYQPVAHNFIRVMFGPNHSFKAGTVGTLADKKAIGYVKHYQDEHPEIKMNNAEVDRLAIGVTGVKATTGQHPAGIVVLPDDKDIYELTPLQYPSDDISKEWKTTHFDFHQIHDNLLKFDILGHQDPTMIRMLQDLSGIDPLTIPTDDPKVMSLFSSPEALGVTPEQINSKTGTLGLPEFGTPFVRGMLEETKPSTFAELLQISGLSHGTDVWLGNAEELINNGTCKLKNVIGCRDNIMTDLIRWGVKEEVAFSTMETVRKGKGISDENMAVLKENKNIPDWYIPSCLKIKYMFPKAHAAAYILMALRVAWFKVYYPEIYYAAYFSVRADKVDLEAMSRGKNTVVALINRIKEKGTAATKLEKDLQTYMELVNEAIERGINFKMVDINESEATTYKIVDKHTILAPFNAVDGLGDSAAKQIVAARSEAPFLSKEDLQVRGKVSQKIMDFFENNNVLEGMPDQNQLSLFEGHHHHHH” here?
**A.** soluble

**Q.** Which “soluble on expression in E. coli” value does the source give for “MGSDKIHHHHHHMDINLYSDRLKLRNLLSRDWDFFLRLHLDKDVNQYIRSIEPESDIVAKFEQRKAVWLFESGDWLTLVIERIDNSQAVGLIGFRCDDAQLRRAEVGYLIAPEQQGLGFASESLLAVTDWGALQFSMHKYIGICAHENTASRKVLEKVGFVLEGTLKQNNCVDGKWSDDCYMGLLTAQRT” here?
**A.** not soluble

**Q.** Which “soluble on expression in E. coli” value does the source give for “MIPKQLSEAEAAVVLNLTVSQVRRLRHKGKLGYTPGRPPRIGEDDIEAYLRAVKRRPTLPPPTEPPTPVIEKDSYADIQRRVREKRLKLRLRSSQRSLG” here?
**A.** not soluble

**Q.** Which “soluble on expression in E. coli” value does the source give for “MGSDKIHHHHHHMRAKELQDWFPEARISDQPVEKEGYLTLPLASQQWILLEEAGLSEREKQLVALLTQQEQARSLNPWYSYLVEGKGQAPQVFKKIQLVYCHLSYFQQENLASWLDMMRTLFPNCQTVLQVGAQDYVFVLQQDKYTSVRDILSDTIEAVEYDFGLRLSIMLGQVWSQTGHQALSDLIKAERDLFKTWWRQGHQGVHTFSQLYLWSMGERLVDLKPIKECLHQMILDQDQIQEIILSLWENSAVLTKTAQQLYLHRNSLQYKIDKWEELTGLQLKELTDLTLCYQLILGSLSTIVGL” here?
**A.** not soluble

**Q.** With “MGHHHHHHSHMKFRAKIVDGACLNHFTRISNMIAKLAKTCTLRISPDKLNFILCDKLANGGVSMWCELEQENFFNEFQMEGVSAENNEIYLELTSENLSRALKTAQNARALKIKLTNKHFPCLTVSVELLSMSSSSRIVTHDIPIKVIPRKLWKDLQEPVVP” as the sequence, how does the “soluble on expression in E. coli” value read?
**A.** not soluble

**Q.** With “GPHMLGILNKMFDPTKRTLNRYEKIANDIDAIRGDYENLSDDALKHKTIEFKERLEKGATTDDLLVEAFAVVREASRRVTGMFPFKVQLMGGVALHDGNIAEMKTGEGKTLTSTLPVYLNALTGKGVHVVTVNEYLASRDAEQMGKIFEFLGLTVGLNLNSMSKDEKREAYAADITYSTNNELGFDYLRDNMVLYKEQMVQRPLHFAVIDEVDSILIDEARTPLIISGQAAKSTKLYVQANAFVRTLKAEKDYTYDIKTKAVQLTEEGMTKAEKAFGIDNLFDVKHVALNHHINQALKAHVAMQKDVDYVVEDGQVVIVDSFTGRLMKGRRYSEGLHQAIEAKEGLEIQNESMTLATITFQNYFRMYEKLAGMTGTAKTEEEEFRNIYNMQVVTIPTNRPVVRDDRPDLIYRTMEGKFKAVAEDVAQRYMTGQPVLVGTVAVETSELISKLLKNKGIPHQVLNAKNHEREAQIIEEAGQKGAVTIATNMAGRGTDIKLGEGVKELGGLAVVGTERHESRRIDNQLRGRSGRQGDPGITQFYLSMEDELMRRFGAERTMAMLDRFGMDDSTPIQSKMVSRAVESSQKRVEGNNFDSRKQLLQYDDVLRQQREVIYKQRFEVIDSENLREIVENMIKSSLERAIAAYTPREELPEEWKLDGLVDLINTTYLDEGALEKSDIFGKEPDEMLELIMDRIITKYNEKEEQFGKEQMREFEKVIVLRAVDSKWMDHIDAMDQLRQGIHLRAYAQTNPLREYQMEGFAMFEHMIESIEDEVAKFVMKAEIENNLEREEVVQGQTTAHQPQEGDDNKKAKKAPVRKVVDIGRNAPCHCGSGKKYKNCCGRTE” as the sequence, how does the “soluble on expression in E. coli” value read?
**A.** soluble

**Q.** For “MRILVSCANGSGTSLMMMRSVEKAMKELGVPITKIHHCAISEGKSSASQYDVVFTPVNFLQMFQQAEKRGVTVIGIKNVMSAKEIQEKYMASDRYQKSE”, which “soluble on expression in E. coli” value is on record?
**A.** not soluble

**Q.** With “MSSDPWGRVDETGTVYVRTADGEQVVGSWQAGSPDEALAYFERKYEGLVVEIGLLEKRVKTTDLSAKDAQTAIDHIREQVDAHHAVGDLDVLRKRLDKLVETVAARREERKAQRAKQSDEARHAKESLVVEAEELAQSDQWRAAGERLRSLVDTWKGLPRLDRKSDDELWHRFSHARSAFSKRRKAHFASLDAQREDARKAKEKLVAEAEALSGSTDWGPTAARYRELMGDWKAAGRAQREHEDDLWNRFRGAQDVFFAARSSVFAERDAEQSENLKLKEELAEEAEKLLPISDLKAARAAFRSLNERWEAIGHVPRDARPKVEGRMHAVERALQESEEVEWRRTNPEARARAEGLTGQLQAAVDKLQGQIEAARSAGNNAKADKLQKELDGRQALLDQALKGLHEFGG” as the sequence, how does the “soluble on expression in E. coli” value read?
**A.** not soluble

**Q.** With “MPMFTSFDHQMMSRAIELAWRGRFTTSPNPNVGCVITRGEQIVGEGFHFRAGEPHAEVHAMRQAGELTRGATAYVTLEPCSHYGRTPPCAEGLIKAGVAKVICAMQDPNPQVAGKGVQMLRDAGIEVEVGLLEADARVLNRGFLKRMETGMPFVQLKMAASLDGQTALANGKSQWITSPAARKDVQRFRAQASAILSTSQTVLADNASLAVRWYDLPSSVQAQYAEADLRQPLRVILDRQHQLHPELALYQTPSPVLRVASENAELCISAENGKLDLRELLALLAQQHNVNQLWVEAGSQLAQSLIEQKLVDEIILYLAPKLMGSDGRGLFGALGLTEMAEAIELKIEDCRMVGADLRIIATPKTKD” as the sequence, how does the “soluble on expression in E. coli” value read?
**A.** not soluble

**Q.** For “MGSDKIHHHHHHMYEEIIEKLDLQMNRMISFLSKKMRLFFQDLEKRFTNRAILLYGPRGAGKTTFLLSMARKHGFLYVSGDEILLLDVPLHDLFQEIMKNYPGIIIDEVHLLKNWSTILKVLYDSFPDKVIWTSDSSSVLLRKGISDLSRRFVLIRMPLMSFREFIHFETGKTLRKLSSPFEVSIDYAAEALKEVDLMSLFRKYRETGTRPFYVEGNFREKLMNILQKAIYYDVPHFLGTVTENHLGVMKAIVGHLLHSKIPTINVESMCREWGVGKQKFYQLLQTMEEIELVNIVRKKRVEKPFSKGEKIFLSDPAMYYAFEGEIGNFREAFVVFALKEIGKIYAVKNEEEGDYVFEGIKIEVGGKSKKKKSSDFVIRDDVDLPVRNVIPMWMLGMLW”, which “soluble on expression in E. coli” value is on record?
**A.** not soluble

**Q.** Which “soluble on expression in E. coli” value does the source give for “MKLSLVFLLFVAFAKSADTAPVDFNKIFVTFVEELMDAINQLILEQMGAIRPSTTPLQSIPPITATDAPTTADTTAEPTKAHETTVAQEATSEGAETHETTVGQDTTVRSGESQETTVSQGTTVSQENTVSQETTVSQDTTVSQETTVSQDTTVSQDTTVSQESTVSQETTVSQDTTVSQETSVSHETNVSPDTTVSQESTVSQDTTVSQETTLSQETTVSQETTVSQDTTVSQETTASQDTTVSQDTTVSQDTTVVPQETTVEATKASEATEENGTTAVTPGESDPCDTTEAPTGGSTVGESEPCDTTEASEPTGHTDQAETVTDPASQATASATIIGGVDQTGSTNLEATTEQICKHPTKDSEEEKTDENKDEKTTRAGTNVHRPEREDILK” here?
**A.** not soluble

**Q.** Which “soluble on expression in E. coli” value does the source give for “DIQMTQSPSSLSASLGERVSLTCRASQDIGSKLYWLQQEPDGTFKRLIYATSSLDSGVPKRFSGSRSGSDYSLTISSLESEDFVDYYCLQYASSPYTFGGGTKLAIKRADAAPTVSIFPPSSEQLTSGGASVVCFLNNFYPKDINVKWKIDGSERQNGVLNSWTDQDSKDSTYSMSSTLTLTKDEYERHNSYTCEATHKTSTSPIVKSFNRNEC” here?
**A.** soluble

**Q.** With “MGSDKIHHHHHHMFDLHVHSVFSDGELIPSEIARRMYAAGNKGFAITDHADFTNIQDILAKLTRIKEHMESYEAKFLVGVEITHVPPSLIGKAVELAWKEGAEIVVVHGETVAEPVKEGTNLAALSEEITILAHPGIMSEEEAELARENGIYVEISARRGHCLGNGRVARLAEKYGFELVINTDMHSPSDIINDSTAERILKGAGVKEWKSVLENNEKLFRKLRK” as the sequence, how does the “soluble on expression in E. coli” value read?
**A.** not soluble

**Q.** For “MGSDKIHHHHHHMLQLPDSPPRMKTLVSVDESYKLCRHLTAKYAKTFYLGTLLMSPVKRQSIWSIYAWCRRTDELVDGPASAITTPETLDLWEQQLESIFAGRPLENYDVALVDTLQRFPMDIQPFRDMIAGQRMDLYRSRYETFEDLYLYCYRVAGTVGLMSTEVMGVDSTLYTAPWHQNKQPYLPTEEAIALGIANQLTNILRDVGEDAKRGRIYIPLEDLEKFNYTEQDFFKGVVDDRWRALMRFQIERARQFYTTSNQGITYLASDARWPVWAASMLYGQILEVIERNDYDVFSRRAFVPQWKKLRTLPLAWMRSQVL”, which “soluble on expression in E. coli” value is on record?
**A.** not soluble

**Q.** With “MADLLPPLTAAQVDAKTKVDEKVDYSNLPSPVPYEELHREALMSLKSDNFEGLRFDFTRALNQKFSLSHSVMMGPTEVPAQSPETTIKIPTAHYEFGANYYDPKLLLIGRVMTDGRLNARLKADLTDKLVVKANALITNEEHMSQAMFNFDYMGSDYRAQLQLGQSALIGATYIQSVTNHLSLGGEIFWAGVPRKSGIGYAARYETDKMVASGQVASTGAVVMNYVQKISDKVSLATDFMYNYFSRDVTASVGYDYMLRQARVRGKIDSNGVASALLEERLSMGLNFLLSAELDHKKKDYKFGFGLTVG” as the sequence, how does the “soluble on expression in E. coli” value read?
**A.** not soluble
